# ± gives the uncertainty stated by the source.
# B1: Nucleosome-remodeling factor subunit BPTF, residues 2862 to 2918; numbered along this chain, Q12830 (parent)
# chain: TKKDTKLYCICKTPYDESKFYIGCDRCQNWYHGRCVGILQSEAELIDEYVCPQCQST
# Variants of: B1
# Experiment: abundance fitness (aPCA) (normalised: wild type 0, dead -1); higher = more abundant; growth selection in yeast, the domain comes from the species named
# Settings: Homo sapiens
row,Variant,abundance fitness
1,TKKDTKLYCICKTPYDESKFYIGCDRCQNWYHGRCVGILQSFAELIDEYVCPQCQST [E42F],-0.274 ± 0.18
2,TKKDTKLYCICKTPYDESKFYIGCDRCQNWYHGRCVGILQSLAELIDEYVCPQCQST [E42L],-0.468 ± 0.11
3,TKKDTKLYCICKTPYDESKFYIGCDRCQNWYHGRCVGILQSKAELIDEYVCPQCQST [E42K],-0.083 ± 0.11
4,TKKDTKLYCICKTPYDESKFYIGCDRCQNWYHGRCVGILQSRAELIDEYVCPQCQST [E42R],-0.403 ± 0.12
5,TKKDTKLYCICKTPYDESKFYIGCDRCQNWYHGRCVGILQSGAELIDEYVCPQCQST [E42G],-0.294 ± 0.13
6,TKKDTKLYCICKTPYDESKFYIGCDRCQNWYHGRCVGILQSDAELIDEYVCPQCQST [E42D],-0.003 ± 0.2
7,TKKDTKLYCICKTPYDESKFYIGCDRCQNWYHGRCVGILQSPAELIDEYVCPQCQST [E42P],-0.342 ± 0.097
8,TKKDTKLYCICKTPYDESKFYIGCDRCQNWYHGRCVGILQSCAELIDEYVCPQCQST [E42C],-0.129 ± 0.23
9,TKKDTKLYCICKTPYDESKFYIGCDRCQNWYHGRCVGILQSNAELIDEYVCPQCQST [E42N],-0.279 ± 0.17
10,TKKDTKLYCICKTPYDESKFYIGCDRCQNWYHGRCVGILQSYAELIDEYVCPQCQST [E42Y],-0.304 ± 0.21
11,TKKDTKLYCICKTPYDESKFYIGCDRCQNWYHGRCVGILQSVAELIDEYVCPQCQST [E42V],-0.269 ± 0.12
12,TKKDTKLYCICKTPYDESKFYIGCDRCQNWYHGRCVGILQSQAELIDEYVCPQCQST [E42Q],-0.021 ± 0.1
13,TKKDTKLYCICKTPYDESKFYIGCDRCQNWYHGRCVGILQSMAELIDEYVCPQCQST [E42M],-0.288 ± 0.15
14,TKKDTKLYCICKTPYDESKFYIGCDRCQNWYHGRCVGILQSTAELIDEYVCPQCQST [E42T],-0.37 ± 0.11
15,TKKDTKLYCICKTPYDESKFYIGCDRCQNWYHGRCVGILQSSAELIDEYVCPQCQST [E42S],-0.205 ± 0.094
16,TKKDTKLYCICKTPYDESKFYIGCDRCQNWYHGRCVGILQSWAELIDEYVCPQCQST [E42W],-0.539 ± 0.18
17,TKKDTKLYCICKTPYDESKFYIGCDRCQNWYHGRCVGILQSAAELIDEYVCPQCQST [E42A],-0.099 ± 0.091
18,TKKDTKLYCICKTPYDESKFYIGCDRCQNWYHGRCVYILQSEAELIDEYVCPQCQST [G37Y],-0.418 ± 0.12
19,TKKDTKLYCICKTPYDESKFYIGCDRCQNWYHGRCVGMLQSEAELIDEYVCPQCQST [I38M],-0.084 ± 0.13
20,TKKDTKLYCICKTPYDESKFYIGCDRCQNWYHGRCVGGLQSEAELIDEYVCPQCQST [I38G],-0.489 ± 0.095
21,TKKDTKLYCICKTPYDESKFYIGCDRCQNWYHGRCVGWLQSEAELIDEYVCPQCQST [I38W],-0.46 ± 0.12
22,TKKDTKLYCICKTPYDESKFYIGCDRCQNWYHGRCVGFLQSEAELIDEYVCPQCQST [I38F],-0.182 ± 0.1
23,TKKDTKLYCICKTPYDESKFYIGCDRCQNWYHGRCVGCLQSEAELIDEYVCPQCQST [I38C],-0.582 ± 0.098

row,Variant,abundance fitness
1,TKKDTKLYCICKTPYDESKFYIGCDRCQNWYHGRCVGKLQSEAELIDEYVCPQCQST [I38K],-0.278 ± 0.13
2,TKKDTKLYCICKTPYDESKFYIGCDRCQNWYHGRCVGDLQSEAELIDEYVCPQCQST [I38D],-0.432 ± 0.1
3,TKKDTKLYCICKTPYDESKFYIGCDRCQNWYHGRCVGTLQSEAELIDEYVCPQCQST [I38T],-0.146 ± 0.11
4,TKKDTKLYCICKTPYDESKFYIGCDRCQNWYHGRCVGPLQSEAELIDEYVCPQCQST [I38P],-0.428 ± 0.095
5,TKKDTKLYCICKTPYDESKFYIGCDRCQNWYHGRCVGRLQSEAELIDEYVCPQCQST [I38R],-0.234 ± 0.075
6,TKKDTKLYCICKTPYDESKFYIGCDRCQNWYHGRCVGLLQSEAELIDEYVCPQCQST [I38L],-0.014 ± 0.072
7,TKKDTKLYCICKTPYDESKFYIGCDRCQNWYHGRCVGNLQSEAELIDEYVCPQCQST [I38N],-0.547 ± 0.11
8,TKKDTKLYCICKTPYDESKFYIGCDRCQNWYHGRCVGELQSEAELIDEYVCPQCQST [I38E],-0.44 ± 0.16
9,TKKDTKLYCICKTPYDESKFYIGCDRCQNWYHGRCVGHLQSEAELIDEYVCPQCQST [I38H],-0.342 ± 0.13
10,TKKDTKLYCICKTPYDESKFYIGCDRCQNWYHGRCVGALQSEAELIDEYVCPQCQST [I38A],-0.452 ± 0.1
11,TKKDTKLYCICKTPYDESKFYIGCDRCQNWYHGRCVGYLQSEAELIDEYVCPQCQST [I38Y],-0.059 ± 0.11
12,TKKDTKLYCICKTPYDESKFYIGCDRCQNWYHGRCVGILQSEFELIDEYVCPQCQST [A43F],-0.17 ± 0.16
13,TKKDTKLYCICKTPYDESKFYIGCDRCQNWYHGRCVGILQSENELIDEYVCPQCQST [A43N],-0.251 ± 0.13
14,TKKDTKLYCICKTPYDESKFYIGCDRCQNWYHGRCVGILQSELELIDEYVCPQCQST [A43L],-0.144 ± 0.099
15,TKKDTKLYCICKTPYDESKFYIGCDRCQNWYHGRCVGILQSEEELIDEYVCPQCQST [A43E],-0.226 ± 0.18
16,TKKDTKLYCICKTPYDESKFYIGCDRCQNWYHGRCVGILQSEHELIDEYVCPQCQST [A43H],0.013 ± 0.16
17,TKKDTKLYCICKTPYDESKFYIGCDRCQNWYHGRCVGILQSEMELIDEYVCPQCQST [A43M],-0.13 ± 0.092
18,TKKDTKLYCICKTPYDESKFYIGCDRCQNWYHGRCVGILQSEIELIDEYVCPQCQST [A43I],0.016 ± 0.12
19,TKKDTKLYCICKTPYDESKFYIGCDRCQNWYHGRCVGILQSEDELIDEYVCPQCQST [A43D],-0.392 ± 0.11
20,TKKDTKLYCICKTPYDESKFYIGCDRCQNWYHGRCVGILQSEGELIDEYVCPQCQST [A43G],-0.028 ± 0.12
21,TKKDTKLYCICKTPYDESKFYIGCDRCQNWYHGRCVGILQSEKELIDEYVCPQCQST [A43K],-0.025 ± 0.12
22,TKKDTKLYCICKTPYDESKFYIGCDRCQNWYHGRCVGILQSEPELIDEYVCPQCQST [A43P],-0.167 ± 0.11
23,TKKDTKLYCICKTPYDESKFYIGCDRCQNWYHGRCVGILQSEQELIDEYVCPQCQST [A43Q],0 ± 0.1

# Source: the Human Domainome abundance scans (Beltran et al. 2025)
